Cytotoxicity by flow cytometry (percent of HCC1806 cells killed, E:T 3:1, 3 h) and Specific lysis of HCC1806 cells relative to mock-transfected NK-92MI (flow cytometry, E:T 3:1, 3 h) data for one substance are collected here from US20160361360A1.

This test concerns the target Trop-2 (on Trop-2-expressing HCC1806 cells) (human) (UniProt P09758). Briefly: cell-based or functional assay.
Sequence of UniProt P09758 (P09758 27-323): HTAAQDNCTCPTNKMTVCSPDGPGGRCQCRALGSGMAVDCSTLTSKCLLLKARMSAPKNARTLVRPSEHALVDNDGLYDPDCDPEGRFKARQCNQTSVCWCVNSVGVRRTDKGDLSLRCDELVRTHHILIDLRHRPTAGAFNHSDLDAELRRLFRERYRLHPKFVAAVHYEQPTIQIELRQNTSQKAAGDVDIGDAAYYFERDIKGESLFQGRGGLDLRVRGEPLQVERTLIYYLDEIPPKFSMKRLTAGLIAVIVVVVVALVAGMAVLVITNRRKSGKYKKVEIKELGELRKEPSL

“hRS7-CAR, a human Trop-2-targeting CAR (SPCD8α-VKhRS7-(GGGGS)3-VHhRS7-HingeCD8α-TMCD8α-ICD4-1BB-ICDCD3ζ) (receptor)” registered a Cytotoxicity by flow cytometry (percent of HCC1806 cells killed, E:T 3:1, 3 h) of 42% and a Specific lysis of HCC1806 cells relative to mock-transfected NK-92MI (flow cytometry, E:T 3:1, 3 h) of 2 fold.
